Consider four molecules from publication PMC10691782 (Cellular immunology, 2022).

The target in assay [1] is BAFF in human plasma (human (endogenous in plasma)). Briefly: SEC. (SEC sorts molecules by how far they enter the pores of the column.)
Assay [2] concerns the target BAFF 60-mer:mBaffR-Fc complex (human | murine, UniProt Q9Y275-1 134-285; Q9D8D0 1-71). The assay is described as follows: ELISA. In general terms: ELISA stands for enzyme-linked immunosorbent assay.
In assay [3] the target is Recombinant BAFF 3-mer (Flag-tagged BAFF amino acid 134-285) (human, UniProt Q9Y275-1 134-285). Briefly: SPR. In general terms: SPR reads the build-up and loss of mass on a sensor chip optically.
The target in assay [4] is Recombinant BAFF 60-mer (histidine-tagged BAFF amino acid 134-285) (human, UniProt Q9Y275-1 134-285). Briefly: SPR.

In the case of BAFF in human plasma (natural protein), the stoichiometry N (usually the number of molecules, sites or subunits per partner or assembly) in assay [1] turned out to be 3.

B1: Murine TACI-Fc (Fc fusion, UniProt Q9ET35 1-128, looked up)
chain: MAMAFCPKDQYWDSSRKSCVSCALTCSQRSQRTCTDFCKFINCRKEQGRYYDHLLGACVSCDSTCTQHPQQCAHFCEKRPRSQANLQPELGRPQAGEVEVRSDNSGRHQGSEHGPGLRLSSDQLTLYC
modifications: biotin (EZ-Link Sulfo-NHS-Biotin), in the ELISA only
Turning to B1, in assay [2], the binding result is “binds”.

B2: Murine BCMA-Fc (Fc fusion, UniProt O88472 1-49, looked up)
chain: MAQQCFHSEYFDSLLHACKPCHLRCSNPPATCQPYCDPSVTSSVKGTYT
modifications: not fully specified; biotin (EZ-Link Sulfo-NHS-Biotin), in the ELISA only
Turning to B2, in assay [2], the binding result was “binds”.

B3: mBaffR-Fc (murine BR3 ecto-domain fused to murine IgG1 Fc fragment) (Fc fusion, UniProt Q9D8D0 1-71, looked up)
chain: MGARRLRVRSQRSRDSSVPTQCNQTECFDPLVRNCVSCELFHTPDTGHTSSLEPGTALQPQEGSALRPDVA
B3: the binding result in assay [3] and in assay [4] was “binds” throughout.
